Data published in US20260117259A1.
Read-outs that look alike come from different tables or passages of the source.

What was measured:
ConM-8.1ds (GnTI-) = assay: flow cytometry, VRC26.25 HCDR3-edited primary murine B cells, labeled SOSIP against surface IgM
BG505ConM-v8.1ds (GnTI-) = assay: as above
ConM-v8.1(GnTI-) = assay: as above
[1] = target: ConM SOSIP protein (v8.1ds) modified with the CRF250 V1V2 region (HIV-1); assay: as above
CRF250ConM-v7ds (GnTI-) = assay: as above
CRF250ConM-v7ds = assay: as above
ConM-v7 (GnTI-) = assay: as above
CRFConM-v8.1ds (GnTI-) = assay: as above
ConM-v7ds (GnTI-) = assay: as above
ConM-v7 = assay: as above
BG505ConM-v8.1 = assay: as above
CRF250ConM-v8.1 (GnTI-) = assay: as above
ConM-v7ds = assay: as above
[2] = target: ConM SOSIP protein (v8.1ds) modified with the BG505 V1V2 region (HIV-1); assay: as above
BG505ConM-v7ds (GnTI-) = assay: as above
ConM-v8.1ds [3] = assay: as above
BG505ConM-v8.1 (GnTI-) = assay: as above
BG505ConM-v7ds = assay: as above
[4] = target: 16055-ConM-v8.1ds SOSIP trimer (HIV-1); assay: flow cytometry, primary murine B cells edited in the HCDR3, labeled 16055-ConM-v8.1ds SOSIP against surface IgM
SOSIP [5] = assay: flow cytometry of murine B cells edited with the VRC26.25 HCDR3, APC-labeled SOSIP trimer against anti-IgM; activation Low dose LPS + IL4
[6] = target: ConM SOSIP protein (v8.1ds) modified with the CRF250 V1V2 region (HIV-1); assay: flow cytometry, VRC26.25 HCDR3-edited primary murine B cells, labeled SOSIP against surface IgM; remark: listed apart in the source
[7] = target: 16055-ConM-v8.1ds SOSIP trimer (HIV-1); assay: as above
[8] = target: ConM SOSIP protein (v8.1ds) modified with the BG505 V1V2 region (HIV-1); assay: as above; remark: listed apart in the source
ConM-v8.1ds [9] = assay: as above; remark: listed apart in the source
SOSIP [10] = assay: flow cytometry of murine B cells edited with the VRC26.25 HCDR3, APC-labeled SOSIP trimer against anti-IgM; activation High dose LPS
SOSIP [11] = assay: flow cytometry of murine B cells edited with the VRC26.25 HCDR3, APC-labeled SOSIP trimer against anti-IgM; activation Anti-CD180

“B-cell receptors of primary murine B cells edited to express the VRC26.25 HCDR3 (antibody)” gave a % of cells in the SOSIP gate (ConM-8.1ds (GnTI-)) of 7.68%, a % of cells in the SOSIP gate (BG505ConM-v8.1ds (GnTI-)) of 6.39% and a % of cells in the SOSIP gate (ConM-v8.1(GnTI-)) of 6.89%. The % of cells in the SOSIP gate [1] was 6.6%, the % of cells in the SOSIP gate (CRF250ConM-v7ds (GnTI-)) was 6.33% and the % of cells in the SOSIP gate (CRF250ConM-v7ds) was 5.46%. The % of cells in the SOSIP gate (ConM-v7 (GnTI-)) was 7.31%, the % of cells in the SOSIP gate (CRFConM-v8.1ds (GnTI-)) was 7.8% and the % of cells in the SOSIP gate (ConM-v7ds (GnTI-)) was 4.48%. For the same substance, the % of cells in the SOSIP gate (ConM-v7) was 5.57%, the % of cells in the SOSIP gate (BG505ConM-v8.1) was 5.19% and the % of cells in the SOSIP gate (CRF250ConM-v8.1 (GnTI-)) was 5.16%. For the same substance, the % of cells in the SOSIP gate (ConM-v7ds) was 5.51%, the % of cells in the SOSIP gate [2] was 5.87% and the % of cells in the SOSIP gate (BG505ConM-v7ds (GnTI-)) was 4.61%. It also gave a % of cells in the SOSIP gate (ConM-v8.1ds [3]) of 6.58%, a % of cells in the SOSIP gate (BG505ConM-v8.1 (GnTI-)) of 7.41% and a % of cells in the SOSIP gate (BG505ConM-v7ds) of 5.08%. It also gave a % of cells in the SOSIP gate [4] of 4.54%, a % of cells above the SOSIP gate line (SOSIP [5]) of 4.62% and a % of cells in the SOSIP gate [6] of 3.22%. The % of cells in the SOSIP gate [7] was 3.83%, the % of cells in the SOSIP gate [8] was 3.59% and the % of cells in the SOSIP gate (ConM-v8.1ds [9]) was 3.62%. The % of cells above the SOSIP gate line (SOSIP [10]) was 3.41% and the % of cells above the SOSIP gate line (SOSIP [11]) was 4.47%.
